Molecular target: UBg_8UBgg (UniProt P0CG47, G76 deletion)
Assay: cryo-EM structure

B1: Rpn10 (natural protein)
chain: MVLESTMVCVDNSEYMRNGDFLPTRLQAQQDAVNIVCHSKTRSNPENNVGLITLANDCEVLTTLTPDTGRILSKLHTVQPKGKITFCTGIRVAHLALKHRQGKNHKMRIIAFVGSPVEDNEKDLVKLAKRLKKEKVNVDIINFGEEEVNTEKLTAFVNTLNGKDGTGSHLVTVPPGPSLADALISSPILAGEGGAMLGLGASDFEFGVDPSADPELALALRVSMEEQRQRQEEEARRAAAASAAEAGIATTGTEDSDDALLKMTISQQEFGRTGLPDLSSMTEEEQIAYAMQMSLQGAEFGQAESADIDASSAMDTSEPAKEEDDYDVMQDPEFLQSVLENLPGVDPNNEAIRNAMGSLASQATKDGKKDKKEEDKK
- binding result: binds

From publication doi:10.1101/2021.10.03.462214 (bioRxiv, 2021)
